The source of these data is the supplement of paper PMC7877785.

The nature of the data set: self-splicing fitness, log relative to wild type (ln ratio); higher = more splicing; Tetrahymena group I intron in knt gene, E. coli kanamycin selection, DiMSum; sequences stand for … in CUCUCU…GGAGGGAAAAGUUAUCAGGCAUGCACCUGGUAGCUAGUCUUUAAACCAAUAGAUUGCAUCGGUUUAAAAGGCAAGACCGUCAAAUUGCGGGAAAGGGGUCAACAGCCGUUCAGUACCAAGUCUCAGGGGAAACUUUGAGAUGGCCUUGCAAAGGGUAUGGUAAUAAGCUGACGGACAUGGUCCUAACCACGCAGCCAAGUCCUAAGUCAACAGAUCUUCUGUUGAUAUGGAUGCAGUUCACAGACUAAAUGUCGGUCGGGGAAGAUGUAUUCUUCUCAUAAGAUAUAGUCGGACCUCUCCUUAAUGGGAGCUAGCGGAUGAAGUGAUGCAACACUGGAGCCGCUGGGAACUAAUUUGUAUGCGAAAGUAUAUUGAUUAGUUUUGGAGUACUCGUGGUCG
In outline: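 Pooled colonies went to amplicon sequencing on an Illumina HiSeq 2500 after six replicate transformations. The plates were LB agar with 100 μg/mL carbenicillin, 50 μM IPTG and 0.2% rhamnose, with or without 25 μg/mL kanamycin, incubated overnight at 37°C or 30°C. The E. coli BL21(DE3) library had all eight P1ex-region intron nucleotides randomised, the intron placed in the knt kanamycin-resistance gene on pET-22b(+). DiMSum fitness is the error-weighted combination of replicate fold changes, kanamycin against none, normalised to wild type.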

± gives the uncertainty stated by the source.

Consider CUGUAGCAAUAUUACGUAUU, for which the “self-splicing fitness (ln)” value by setting is: (30 °C) -4.45 ± 0.29; (37 °C) -3.47 ± 0.33. As to ACGAAGCAAUAUUACGGUGA, the “self-splicing fitness (ln)” value is, setting by setting: (30 °C) -2.33 ± 0.088; (37 °C) -1.48 ± 0.085.

Turning to AAGGAGCAAUAUUACGUCCG, the “self-splicing fitness (ln)” value reads like this: (30 °C) -1.79 ± 0.2; (37 °C) -1.03 ± 0.28. In the case of AGGUAGCAAUAUUACGCAGU, the “self-splicing fitness (ln)” value runs as follows: (30 °C) -2.979 ± 0.021; (37 °C) -1.68 ± 0.035.

In the case of CUCGAGCAAUAUUACGUUCG, the “self-splicing fitness (ln)” value (37 °C) was -3.15 ± 0.47. With UAAUAGCAAUAUUACGGUGC, the “self-splicing fitness (ln)” value (37 °C) was -1.98 ± 0.36.

For CGGCAGCAAUAUUACGACCA, the “self-splicing fitness (ln)” value reads like this: (30 °C) -0.307 ± 0.1; (37 °C) 0.682 ± 0.14.

With UCCAAGCAAUAUUACGCCUU, the “self-splicing fitness (ln)” value reads like this: (30 °C) -4.12 ± 0.22; (37 °C) -2.98 ± 0.21. As for CGUAAGCAAUAUUACGAAUC, the “self-splicing fitness (ln)” value (37 °C) is -2.06 ± 0.3. Consider AUAUAGCAAUAUUACGCUGG, for which the “self-splicing fitness (ln)” value (30 °C) is -2.06 ± 0.2 and the “self-splicing fitness (ln)” value (37 °C) is -1.51 ± 0.32. For GAUGAGCAAUAUUACGGCAA, in that order: -0.812 ± 0.26 and -2.35 ± 0.37. As for GUUGAGCAAUAUUACGGGUU, the “self-splicing fitness (ln)” value is -3.57 ± 0.27 (30 °C) and -2 ± 0.21 (37 °C). As for CGGGAGCAAUAUUACGCCGU, under “30 °C”, the “self-splicing fitness (ln)” value is -3.46 ± 0.47.

Consider AGGGAGCAAUAUUACGUAUC, for which the “self-splicing fitness (ln)” value (30 °C) was -2.16 ± 0.25. As to UAACAGCAAUAUUACGUAUA, the “self-splicing fitness (ln)” value was -1.4 ± 0.062 (30 °C) and -0.86 ± 0.069 (37 °C).

As for AAUGAGCAAUAUUACGAUAU, the “self-splicing fitness (ln)” value was -3.25 ± 0.25 (30 °C) and -0.861 ± 0.22 (37 °C). For CGUAAGCAAUAUUACGAUUG, in that order: -0.745 ± 0.079 and -0.605 ± 0.11. As to AGCUAGCAAUAUUACGGCCG, the “self-splicing fitness (ln)” value is -0.198 ± 0.15 (30 °C) and 0.841 ± 0.19 (37 °C). With AGGAAGCAAUAUUACGAGGG, the “self-splicing fitness (ln)” value (30 °C) is -3.63 ± 0.26 and the “self-splicing fitness (ln)” value (37 °C) was -3.07 ± 0.29. For GAGCAGCAAUAUUACGGAUA, the “self-splicing fitness (ln)” value by setting is: (30 °C) -2.15 ± 0.22; (37 °C) -2.11 ± 0.26. For UACGAGCAAUAUUACGGUUG the same measures were -2.72 ± 0.13 and -2.11 ± 0.16. Consider AUUUAGCAAUAUUACGACUU, for which the “self-splicing fitness (ln)” value by setting is: (30 °C) -0.092 ± 0.059; (37 °C) 0.239 ± 0.067.

UCCGAGCAAUAUUACGCAGU: the “self-splicing fitness (ln)” value by setting is: (30 °C) -2.79 ± 0.33; (37 °C) -2.31 ± 0.28. For ACGUAGCAAUAUUACGAGAU the same measures were -2.82 ± 0.14 and -2.23 ± 0.19. As to CACGAGCAAUAUUACGCCGA, the “self-splicing fitness (ln)” value (30 °C) was -2.35 ± 0.39. For the sequence UUCAAGCAAUAUUACGUCGA, the “self-splicing fitness (ln)” value is -0.383 ± 0.078 (30 °C) and -0.0975 ± 0.087 (37 °C). For CUAGAGCAAUAUUACGUAGU, in that order: -2.72 ± 0.22 and -1.94 ± 0.33. For ACCGAGCAAUAUUACGGGCA, in that order: -0.957 ± 0.1 and -0.109 ± 0.11. For AACAAGCAAUAUUACGAAAG the same measures were -2.14 ± 0.14 and -2.73 ± 0.22. With CGAGAGCAAUAUUACGGGUC, where the note is “37 °C”, the “self-splicing fitness (ln)” value is -0.826 ± 0.23.

On to CUAAAGCAAUAUUACGGAAA, for which the “self-splicing fitness (ln)” value runs as follows: (30 °C) -4.24 ± 0.37; (37 °C) -2.44 ± 0.35. For UGGAAGCAAUAUUACGAUAC the same measures were -3.37 ± 0.49 and -2.54 ± 0.48. For UUAGAGCAAUAUUACGAGUA, in that order: -3.31 ± 0.29 and -2.1 ± 0.19. UUUAAGCAAUAUUACGCCUU: the “self-splicing fitness (ln)” value is, setting by setting: (30 °C) -0.228 ± 0.34; (37 °C) -1.35 ± 0.36.

As to CUGUAGCAAUAUUACGGUUC, the “self-splicing fitness (ln)” value by setting is: (30 °C) -3.87 ± 0.14; (37 °C) -3.71 ± 0.22. For GUUUAGCAAUAUUACGUGCG the same measures were -0.649 ± 0.11 and -0.5 ± 0.11. With CGAAAGCAAUAUUACGAUCG, the “self-splicing fitness (ln)” value is -3.41 ± 0.43 (30 °C) and -1.34 ± 0.29 (37 °C). For GAUCAGCAAUAUUACGAGUA, in that order: -1.2 ± 0.12 and -0.817 ± 0.092. As for GCCAAGCAAUAUUACGCGAC, the “self-splicing fitness (ln)” value (30 °C) is -2.35 ± 0.11 and the “self-splicing fitness (ln)” value (37 °C) was -0.858 ± 0.1. UCGGAGCAAUAUUACGUGAC: the “self-splicing fitness (ln)” value reads like this: (30 °C) -1.95 ± 0.34; (37 °C) -2.14 ± 0.46.

Consider ACACAGCAAUAUUACGGCAA, for which the “self-splicing fitness (ln)” value (30 °C) was -1.49 ± 0.077 and the “self-splicing fitness (ln)” value (37 °C) is -0.943 ± 0.081. For CACAAGCAAUAUUACGAUAC the same measures were -3.58 ± 0.21 and -2.5 ± 0.29. For GGCAAGCAAUAUUACGGUCU the same measures were -0.851 ± 0.093 and -0.575 ± 0.1.

As for CCAAAGCAAUAUUACGAACA, the “self-splicing fitness (ln)” value by setting is: (30 °C) -3.48 ± 0.22; (37 °C) -3.23 ± 0.28. For UCCGAGCAAUAUUACGCUAA, the “self-splicing fitness (ln)” value (37 °C) is -2.86 ± 0.32. As to UUGGAGCAAUAUUACGUCAU, the “self-splicing fitness (ln)” value was -3.84 ± 0.47 (30 °C) and -1.45 ± 0.34 (37 °C). For AAGCAGCAAUAUUACGACUG, in that order: -2.67 ± 0.12 and -1.8 ± 0.14. For ACUGAGCAAUAUUACGGGCU, in that order: -3.34 ± 0.17 and -2.92 ± 0.25.

For CCCGAGCAAUAUUACGUAUA, the “self-splicing fitness (ln)” value is -2.79 ± 0.17 (30 °C) and -2.82 ± 0.26 (37 °C). For UAAGAGCAAUAUUACGUGGA the same measures were -2.84 ± 0.28 and -2.14 ± 0.3. For CAACAGCAAUAUUACGUAGG, the “self-splicing fitness (ln)” value is, setting by setting: (30 °C) -0.482 ± 0.055; (37 °C) 0.249 ± 0.069.

CCGCAGCAAUAUUACGCGAU: the “self-splicing fitness (ln)” value is, setting by setting: (30 °C) -3.44 ± 0.14; (37 °C) -3.44 ± 0.21. For AAACAGCAAUAUUACGCAGC the same measures were -1.83 ± 0.14 and -1.98 ± 0.23. For AGCGAGCAAUAUUACGCAUC the same measures were -2.51 ± 0.36 and -2.33 ± 0.33.

Take CAUCAGCAAUAUUACGUAGA: the “self-splicing fitness (ln)” value is, setting by setting: (30 °C) -1.06 ± 0.065; (37 °C) -0.309 ± 0.088. For CGAUAGCAAUAUUACGUCGC the same measures were -3 ± 0.15 and -2.79 ± 0.21. For AUCCAGCAAUAUUACGAGCC, in that order: -3.17 ± 0.25 and -3.32 ± 0.33. Take CCAUAGCAAUAUUACGCACC: the “self-splicing fitness (ln)” value (30 °C) is -1 ± 0.34. For CAAUAGCAAUAUUACGCUAC, the “self-splicing fitness (ln)” value reads like this: (30 °C) -3.14 ± 0.22; (37 °C) -2.08 ± 0.26.

For GGAAAGCAAUAUUACGAACG, the “self-splicing fitness (ln)” value (30 °C) is -0.51 ± 0.1 and the “self-splicing fitness (ln)” value (37 °C) is -0.441 ± 0.12. As to CCACAGCAAUAUUACGAUCG, the “self-splicing fitness (ln)” value was -0.326 ± 0.06 (30 °C) and 0.703 ± 0.077 (37 °C).

Regarding UACCAGCAAUAUUACGAGGC, the “self-splicing fitness (ln)” value was -4.87 ± 0.26 (30 °C) and -2.23 ± 0.15 (37 °C). For UGCAAGCAAUAUUACGGGAA, in that order: -2.94 ± 0.16 and -1.33 ± 0.12. Take CUGCAGCAAUAUUACGUUAC: the “self-splicing fitness (ln)” value runs as follows: (30 °C) -4.46 ± 0.28; (37 °C) -3.08 ± 0.24.

As for UUAAAGCAAUAUUACGUUCC, the “self-splicing fitness (ln)” value (30 °C) was -2.36 ± 0.22 and the “self-splicing fitness (ln)” value (37 °C) is -0.947 ± 0.21. In the case of CAGAAGCAAUAUUACGCUCG, the “self-splicing fitness (ln)” value by setting is: (30 °C) -1.31 ± 0.11; (37 °C) -0.994 ± 0.15. For CAUCAGCAAUAUUACGGAAG the same measures were -0.623 ± 0.054 and -0.416 ± 0.069. For CACAAGCAAUAUUACGUGAU the same measures were -4.03 ± 0.15 and -2.5 ± 0.15. Take CGUGAGCAAUAUUACGCCCA: the “self-splicing fitness (ln)” value (37 °C) is -2.03 ± 0.46. Turning to ACUAAGCAAUAUUACGUGUG, the “self-splicing fitness (ln)” value (30 °C) is -2.18 ± 0.07 and the “self-splicing fitness (ln)” value (37 °C) is -1.06 ± 0.076.

For the sequence UAAAAGCAAUAUUACGAAGG, the “self-splicing fitness (ln)” value is -2.61 ± 0.21 (30 °C) and -1.6 ± 0.23 (37 °C). For ACCUAGCAAUAUUACGGUUC the same measures were -4.77 ± 0.34 and -2.62 ± 0.24.

As to CAGCAGCAAUAUUACGCAAG, the “self-splicing fitness (ln)” value by setting is: (30 °C) -1.53 ± 0.092; (37 °C) -0.332 ± 0.11.

Take ACAGAGCAAUAUUACGAAUG: the “self-splicing fitness (ln)” value (30 °C) is -3.82 ± 0.16 and the “self-splicing fitness (ln)” value (37 °C) was -2.51 ± 0.19.

As for AUAGAGCAAUAUUACGGCUU, the “self-splicing fitness (ln)” value (30 °C) was -0.934 ± 0.12 and the “self-splicing fitness (ln)” value (37 °C) was -1.34 ± 0.14. For ACCCAGCAAUAUUACGUUCG, in that order: -3.74 ± 0.14 and -1.26 ± 0.088. As to UUGCAGCAAUAUUACGUGUG, the “self-splicing fitness (ln)” value was -2.1 ± 0.087 (30 °C) and -1.68 ± 0.12 (37 °C). Consider GACUAGCAAUAUUACGUCAG, for which the “self-splicing fitness (ln)” value was -2.88 ± 0.21 (30 °C) and -3.7 ± 0.37 (37 °C).
